According to patent US20220098305A1 (Hoffmann-La Roche, published 2022):
Residue numbers refer to the chain shown, from its start. In names and notes the source's numbering stands. Read-outs that look alike come from different tables or passages of the source.

T1: human ICOS (human, UniProt Q9Y6W8 21-199)
T1 sequence: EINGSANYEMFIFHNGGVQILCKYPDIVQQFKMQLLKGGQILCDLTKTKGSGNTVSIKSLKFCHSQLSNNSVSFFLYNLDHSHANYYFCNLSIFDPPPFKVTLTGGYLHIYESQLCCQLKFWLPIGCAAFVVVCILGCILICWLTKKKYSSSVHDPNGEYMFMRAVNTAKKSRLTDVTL

T2: cynomolgus ICOS (cynomolgus, UniProt Q9Y6W8 21-195 (human entry))
T2 chain: T1 sequence with T54K, H81R, A129T, L136F, S152T, D176G, V177T, L179P

T3: murine ICOS (murine, UniProt Q9WVS0 21-200)
T3 sequence: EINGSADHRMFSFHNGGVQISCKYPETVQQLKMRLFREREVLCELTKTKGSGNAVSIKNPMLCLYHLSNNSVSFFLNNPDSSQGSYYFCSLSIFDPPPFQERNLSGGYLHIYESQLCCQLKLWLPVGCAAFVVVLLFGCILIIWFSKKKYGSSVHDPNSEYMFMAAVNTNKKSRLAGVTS

B1: Molecule 15, bispecific 2+1 anti-ICOS (009v1)/anti-FAP (4B9) huIgG1 P329GLALA kih (bispecific antibody)
heavy 1: EVRLDETGGGVVQPGRPMELSCVASGFTFSDYWMNWVRQSPEKGLEWVAQIRNKPYNYETYYSDSVKGRFTISRDDSKSRVYLQMNNLRAEDMGIYYCTWPRLRSSDWHFDVWGAGTTVTVSSASTKGPSVFPLAPSSKSTSGGTAALGCLVKDYFPEPVTVSWNSGALTSGVHTFPAVLQSSGLYSLSSVVTVPSSSLGTQTYICNVNHKPSNTKVDKKVEPKSCDKTHTCPPCPAPEAAGGPSVFLFPPKPKDTLMISRTPEVTCVVVDVSHEDPEVKFNWYVDGVEVHNAKTKPREEQYNSTYRVVSVLTVLHQDWLNGKEYKCKVSNKALGAPIEKTISKAKGQPREPQVCTLPPSRDELTKNQVSLSCAVKGFYPSDIAVEWESNGQPENNYKTTPPVLDSDGSFFLVSKLTVDKSRWQQGNVFSCSVMHEALHNHYTQKSLSLSPGGGGGSGGGGSGGGGSGGGGSEIVLTQSPGTLSLSPGERATLSCRASQSVTSSYLAWYQQKPGQAPRLLINVGSRRATGIPDRFSGSGSGTDFTLTISRLEPEDFAVYYCQQGIMLPPTFGQGTKVEIK
heavy 2: not shown
light: AIQMTQSPSSLSASLGGEVTITCKASQDINKNIAWYQHKPGRGPRLLIWYTSTLQTGIPSRFSGSGSGRDYSFTISNLEPEDFATYYCLQFDNLYTFGSGTKLEIRRTVAAPSVFIFPPSDEQLKSGTASVVCLLNNFYPREAKVQWKVDNALQSGNSQESVTEQDSKDSTYSLSSTLTLSKADYEKHKVYACEVTHQGLSSPVTKSFNRGEC
B2: Molecule 10, bispecific monovalent anti-ICOS (1167)/anti-FAP (4B9) huIgG1 P329GLALA kih antibody (1+1) (bispecific antibody)
heavy 1: EIVLTQSPGTLSLSPGERATLSCRASQSVTSSYLAWYQQKPGQAPRLLINVGSRRATGIPDRFSGSGSGTDFTLTISRLEPEDFAVYYCQQGIMLPPTFGQGTKVEIKSSASTKGPSVFPLAPSSKSTSGGTAALGCLVKDYFPEPVTVSWNSGALTSGVHTFPAVLQSSGLYSLSSVVTVPSSSLGTQTYICNVNHKPSNTKVDKKVEPKSCDKTHTCPPCPAPEAAGGPSVFLFPPKPKDTLMISRTPEVTCVVVDVSHEDPEVKFNWYVDGVEVHNAKTKPREEQYNSTYRVVSVLTVLHQDWLNGKEYKCKVSNKALGAPIEKTISKAKGQPREPQVCTLPPSRDELTKNQVSLSCAVKGFYPSDIAVEWESNGQPENNYKTTPPVLDSDGSFFLVSKLTVDKSRWQQGNVFSCSVMHEALHNHYTQKSLSLSP
light 1: EVQLLESGGGLVQPGGSLRLSCAASGFTFSSYAMSWVRQAPGKGLEWVSAIIGSGASTYYADSVKGRFTISRDNSKNTLYLQMNSLRAEDTAVYYCAKGWFGGFNYWGQGTLVTVSSASVAAPSVFIFPPSDEQLKSGTASVVCLLNNFYPREAKVQWKVDNALQSGNSQESVTEQDSKDSTYSLSSTLTLSKADYEKHKVYACEVTHQGLSSPVTKSFNRGEC
heavy 2: not shown
light 2: DIQMTQSPSSVSASVGDRVTITCRASQGINNFLAWYQQKPGKAPKLLIYDASSLQSGVPSRFAGSGSGTDFTLTISSLQPEDFATYYCQQYNFYPLTFGGGTMVEIKRTVAAPSVFIFPPSDRKLKSGTASVVCLLNNFYPREAKVQWKVDNALQSGNSQESVTEQDSKDSTYSLSSTLTLSKADYEKHKVYACEVTHQGLSSPVTKSFNRGEC
notes: CrossFab (VLCH1/VHCL) on the FAP arm; also called FAP-ICOS (1+1)
B3: Molecule 11, bispecific 1+1 head-to-tail anti-ICOS (1167)/anti-FAP (4B9) huIgG1 P329GLALA kih antibody (bispecific antibody)
heavy 1: DKTHTCPPCPAPEAAGGPSVFLFPPKPKDTLMISRTPEVTCVVVDVSHEDPEVKFNWYVDGVEVHNAKTKPREEQYNSTYRVVSVLTVLHQDWLNGKEYKCKVSNKALGAPIEKTISKAKGQPREPQVCTLPPSRDELTKNQVSLSCAVKGFYPSDIAVEWESNGQPENNYKTTPPVLDSDGSFFLVSKLTVDKSRWQQGNVFSCSVMHEALHNHYTQKSLSLSPGGGGGSGGGGSGGGGSGGGGSEIVLTQSPGTLSLSPGERATLSCRASQSVTSSYLAWYQQKPGQAPRLLINVGSRRATGIPDRFSGSGSGTDFTLTISRLEPEDFAVYYCQQGIMLPPTFGQGTKVEIK
heavy 2: not shown
light: B2 light 2
notes: names and VH/VL of 4B9 are swapped; also called 1+1_HT; FAP-ICOS (HT)
B4: Molecule 12, bispecific 2+1 anti-ICOS (1167)/anti-FAP (4B9) Crossfab-IgG P329G LALA (bispecific antibody)
heavy 1: EVRLLESGGGLVQPGGSLRLSCAASGFTFNTYAVHWVRQAPGKGLEWVSGIGGSGVRTYYADSVKGRLTISRDNSKNTLYLQMNSLRAEDTAIYFCAKDIYVADFTGYAFDIWGQGTMVTVSSASTKGPSVFPLAPSSKSTSGGTAALGCLVEDYFPEPVTVSWNSGALTSGVHTFPAVLQSSGLYSLSSVVTVPSSSLGTQTYICNVNHKPSNTKVDEKVEPKSCDKTHTCPPCPAPEAAGGPSVFLFPPKPKDTLMISRTPEVTCVVVDVSHEDPEVKFNWYVDGVEVHNAKTKPREEQYNSTYRVVSVLTVLHQDWLNGKEYKCKVSNKALGAPIEKTISKAKGQPREPQVCTLPPSRDELTKNQVSLSCAVKGFYPSDIAVEWESNGQPENNYKTTPPVLDSDGSFFLVSKLTVDKSRWQQGNVFSCSVMHEALHNHYTQKSLSLSP
light 1: B2 light 2
heavy 2: not shown
light 2: B2 light 1

Legend:
[1] = molecular target: T1, human ICOS; assay: cell-based or functional assay
[2] = molecular target: T1, human ICOS; assay: flow cytometry, CHO cells expressing human ICOS
Procedure: (§1) Briefly, suspension cells were harvested, counted, checked for viability and re-suspended at 1 million cells per ml in FACS buffer (PBS with 0.1% BSA). […] The staining was fixed for 20 min at 4° C. in the dark, using 75 μl of 1% PFA in FACS buffer per well.
(§2) Fluorescence was analyzed by FACS using a FACS Fortessa (Software FACS Diva). Binding curves and EC₅₀ values were obtained using GraphPadPrism 7.

[3] = molecular target: T2, cynomolgus ICOS; assay: flow cytometry on cynomolgus PBMCs activated 48 h with CD3/CD28 beads, CD4+ subset, MFI
Procedure: as §1
(§3) Briefly, cynomolgus PBMCs were activated for 48 hours using Dynabeads™ Human T-Activator CD3/CD28 (Thermo Fischer #11131D) according to manufacturer instruction and stored in RPMI1640 medium containing 10% FCS and 1% Glutamax (Gibco 35050061) at 37° C., in a humidified incubator until subsequent binding experiment was performed, as described above.

[4] = molecular target: T1, human ICOS; assay: flow cytometry on CHO cells expressing human ICOS, PE-labelled secondary antibody; y axis printed LOG10(MFI PE)
[5] = molecular target: T4, human FAP (human, UniProt Q12884 1-760); assay: flow cytometry, NIH/3T3-huFAP clone 19 cells
T4 construct: also called hu FAP

[6] = molecular target: T4, human FAP; assay: flow cytometry, NIH/3T3-huFAP clone 19 cells; remark: listed apart in the source
Procedure: as §1, §2

[7] = molecular target: T4, human FAP; assay: flow cytometry on NIH/3T3-huFAP clone 19 cells, geometric MFI
[8] = molecular target: T1, human ICOS; assay: flow cytometry, SR cells
[9] = molecular target: T2, cynomolgus ICOS; assay: flow cytometry, activated cynomolgus PBMCs, CD8+ subset
Procedure: as §1, §3

[10] = molecular target: T2, cynomolgus ICOS; assay: flow cytometry on cynomolgus PBMCs activated 48 h with CD3/CD28 beads, CD8+ subset, MFI
Procedure: as §1, §3

[11] = molecular target: T1, human ICOS; assay: flow cytometry, CHO cells expressing human ICOS; remark: listed apart in the source
[12] = molecular target: T2, cynomolgus ICOS; assay: flow cytometry, activated cynomolgus PBMCs, CD4+ subset
Procedure: as §1, §3

[13] = molecular target: T4, human FAP; assay: flow cytometry, NIH/3T3-huFAP clone 19 cells; remark: listed apart in the source
[14] = molecular target: T2, cynomolgus ICOS; assay: flow cytometry on cynomolgus PBMCs activated 48 h with CD3/CD28 beads, CD4+ subset, MFI
[15] = molecular target: T3, murine ICOS; assay: flow cytometry, % positive cells; murine ICOS on recombinant CHO cells according to the legend, on pre-activated murine splenocytes according to the example
[16] = molecular target: T4, human FAP; assay: flow cytometry on NIH/3T3-huFAP clone 19 cells, MFI on single cells
Procedure: as §1

[17] = molecular target: T5, murine FAP (murine, UniProt P97321 26-761, limits assumed); assay: flow cytometry, cells carrying murine FAP not told
T5 construct: also called mouse FAP

[18] = molecular target: T1, human ICOS; assay: flow cytometry, pre-activated human PBMCs, CD4+ subset
Procedure: as §1
(§4) Briefly, Peripheral blood mononuclear cells (PBMCs) were prepared by Histopaque (Sigma-Aldrich, Cat No. 10771-500ML Histopaque-1077) density centrifugation of enriched lymphocyte preparations of heparinized blood obtained from a Buffy Coat (“Blutspende Zürich”). The blood was diluted 1:2 with sterile DPBS and layered over Histopaque gradient (Sigma, #H8889). After centrifugation (450×g, 30 minutes, room temperature), the plasma above the PBMC-containing interphase was discarded and PBMCs transferred in a new falcon tube subsequently filled with 50 ml of PBS. The mixture was centrifuged (400×g, 10 minutes, room temperature), the supernatant discarded and the PBMC pellet washed twice with sterile PBS (centrifugation steps 350×g, 10 minutes). The resulting PBMC population was counted automatically (Cedex HiRes) and stored in RPMI1640 medium containing 10% FCS and 1% Glutamax (Gibco 35050061). […] After incubation the PBMCs were used for a subsequent binding experiment, as described above.

[19] = molecular target: T5, murine FAP; assay: flow cytometry, % positive cells; cells bearing murine FAP not given
[20] = molecular target: T4, human FAP; assay: flow cytometry on NIH/3T3-huFAP clone 19 cells, AF647-labelled anti-human Fc secondary antibody, MFI
Procedure: as §1, §2

[21] = molecular target: T1, human ICOS; assay: flow cytometry, pre-activated human PBMCs, CD8+ subset
Procedure: as §1, §4

Binder	EC50 [2]	EC50 [6]	EC50 [13]	binding result [14]	binding result [15]	EC50 (read off the curve) [16]	EC50 [17]	EC50 [18]	EC50 (read off the curve) [19]	EC50 (read off the curve) [20]	EC50 [21]	further results
B1	1.12 nM	2.97 nM										EC50 of activation of Jurkat-NFAT reporter cell line [1]: 4.44 nM; Max (Counts/sec), Jurkat-NFAT reporter cell line [1]: 39700 Counts/sec; EC50 (read off the curve) [3]: ~2 nM; EC50 (read off the curve) [4]: ~0.5 nM; EC50 [5]: 0.00198 nM; EC50 (read off the curve) [7]: ~2 nM; EC50 [8]: 0.00139 nM; EC50 [9]: 3.5 nM; EC50 (read off the curve) [10]: ~3 nM; EC50 [11]: 0.516 nM; Max (Log10(MFI)) [11]: 3.06 Log10(MFI); EC50 [12]: 2.09 nM
B2	41.7 nM	1.4 nM	1.54 nM	binds	binds	~2 nM	0.177 nM	~58 nM	~0.2 nM	~1 nM	~124 nM	
B3	4.17 nM	1.15 nM		binds	binds		0.413 nM		~0.4 nM	~1 nM		
B4			1.82 nM			~2 nM		~12.6 nM			~12.6 nM	
